Patent US11739297B2, “Method of increasing tumor killing activity of macrophages or monocytes comprising chimeric antigen receptor” (Carisma Therapeutics Inc., priority 2020, dated 2023)

Key:
human macrophages [1] = assay: Viability, CAR expression and M1/M2 markers of HER2 CAR mRNA electroporated macrophages cultured with cytokines; format: cell-based; conditions: mRNA transfected CAR macrophages
Method: Human macrophages were electroporated with HER2 CAR mRNA comprising m6AGCap1 and PsU modifications. Cells were cultured with cytokines that induce an M1 phenotype such as IFN-alpha, IFN-beta, IFN-gamma, IFN-gamma plus lipopolysaccharide (LPS), TNF-alpha, IL-6 or a STING ligand (STING-L) for up to 48 hours and then cytokines were washed off and fresh media was added. CAR expression and M1 marker expression were measured on days 2 and 7 after transfection. Fluorescent labeled HER2+ breast cancer cells (CRL2351) were co-cultured with HER2 CAR macrophages two days after the macrophages were transfected. Cancer cell growth was monitored via its fluorescence on an Incucyte® live imaging microscope every four hours. The Effector (CAR macrophage) to Target (cancer cell) ratio was 5:1.
Five different mRNA modifications were also tested to determine if interferon treatment differentially affected macrophages transfected with mRNA comprising different modifications. Human macrophages were electroporated with HER2 CAR mRNA comprising different mRNA modifications. CAR expression and M1 markers were detected by Flow Cytometry (Attune) on day four after electroporation. Day 4 CAR macrophage cells were then co-cultured with a Nuc-Light labeled, HER2+ breast cancer cell line (CRL2351) at an Effector (CAR macrophage) to Target (cancer cell) ratio of 5:1. Cancer cell growth was monitored via its fluorescence on an Incucyte® live imaging microscope every four hours.
Human macrophages were electroporated with 300 nM CAR mRNA comprising m6AGCap1 and PsU modifications. Cells were cultured with 20 ng/mL IFNs for 24 hours and then the cells were washed to remove cytokines. CAR expression was detected by Flow Cytometry (Attune) on day 2 after transfection. Cells were then co-cultured with a Nuc-Light labeled, HER2+ breast cancer cell line (CRL2351) at the Effector to Target ratio of 3:1. Cancer cell growth was monitored via its fluorescence on an Incucyte® live imaging microscope. CAR expression and M1 markers in macrophages were detected by Flow Cytometry (Attune) on day 7 after transfection.

[2] = system: HER2+ breast cancer cells (CRL2351); assay: Cytokine secretion of interferon treated HER2 CAR macrophages in co-culture (MSD); format: cell-based, human; conditions: 150 nM CAR mRNA, E:T 3:1, 48 hours co-culture
Method: Human macrophages were electroporated with 150 nM HER2 CAR mRNA comprising m6AGCap1 and PsU modifications. HER2+ breast cancer cells (CRL2351) were co-cultured with CAR macrophages after the macrophages were transfected with the CAR mRNA at an Effector (CAR macrophage) to Target (cancer cell) ratio of 3:1. Supernatant was collected 48 hours after the cancer cells and macrophages were co-cultured and cytokine levels were measured using a Meso Scale Discovery (MSD) instrument.

[3] = system: CRL-2351 cells expressing nuclear GFP; assay: Tumor cell killing by macrophages primed on agonist coated plates (Incucyte); format: cell-based, human; conditions: plate-coated agonist, 3 h priming
Method: (§1) To generate Her2-Zeta CAR expressing macrophages, primary human macrophages were suspended in EP buffer (MaxCyte) containing 300 nM mRNA (TriLink) at a concentration of 90×10^6 cells/mL. 100 μL of cell mixture was added to an electroporation cassette (OC100×2; MaxCyte) and electroporated using the Experimental T cell 1 setting. Cells were removed from the cassette, plated in 3 mL of TexMACS media (Miltenyi Biotech) containing 20% FBS (Gibco) on UpCell plates (Thermo Scientific), and incubated overnight at 37 C and 5% CO2.
(§2) Recombinant CD40 ligand (Peprotech), 4-1BB ligand (Enzo Life Sciences), and 4-1BB receptor (Peprotech) were resuspended in molecular grade water to a stock concentration of 100 μg/mL. Stock solution was then used to create working solutions in PBS ranging from 2-0.002 μg/mL. 100 uL of working solution was added to wells in a 96-well plate and left at room temperature for 4 h.
Plates were removed from the incubator and left at room temperature for 30 min. Cells were detached from plate, counted using the NC-200 automated cell counter (Chemomtech), and re-suspended in TexMACS media with 10% FBS. […] Cell lysis was detected using Incucyte® analysis (Essen Bioscience). Tumor cell death was calculated by integrated GFP intensity per well relative to time 0.

[4] = system: Her2-Zeta CAR expressing macrophages; assay: M1 and M2 surface marker expression after agonist priming (flow cytometry); format: cell-based, human; conditions: mRNA transduced CAR macrophages, 3 days on agonist coated wells
Method: as §1, §2
For detection of cell surface proteins, macrophages were plated onto wells coated with agonist molecules in a final volume of 200 uL TexMACS media+10% FBS+10 ng/mL GM-CSF and incubated for 3 days at 37 C and 5% CO2. Cells were incubated in 300 μL Accutase (Sigma) for 30 min and transferred to 96-well round bottom plate for staining. Cells were incubated in FACS buffer containing 20 μg/mL Her2-His for 20 min at RT, followed by incubation in Human TruStain FcX for 10 min at RT. […]

human macrophages [5] = assay: mCherry mRNA expression in transfected macrophages (Incucyte); format: cell-based; conditions: mCherry mRNA (m6AGCap1 and PsU or N1mPsU), one day, different doses
Method: Human macrophages were transfected with mCherry mRNA comprising m6AGCap1 and PsU or N1mPsU modifications and were then cultured for one day with different doses of IFN-γ. mCherry expression was monitored on an Incucyte® live imaging microscope.
In order to determine whether an RNaseL inhibitor could rescue IFN-γ-induced instability of transfected mRNA, human macrophages were treated with 1 μM sunitinib (an RNaseL inhibitor) two hours prior to the transfection of mCherry mRNA comprising m6AGCap1 and PsU modifications. Transfected cells were then cultured for one day with different dosages of IFN-γ. mCherry expression was monitored on an Incucyte® live imaging microscope.
The effect of another RNaseL inhibitor (RLI or ABCE1) was also tested to further validate the concept. Human macrophages were co-transfected with mRNA encoding mCherry comprising m6AGCap 1 and PsU modifications and with mRNA encoding ABCE1.

Molecule: IFN-α
- M1 phenotype (based on CD86 expression) (human macrophages [1]): induction of an M1 phenotype
- M2 markers (based on CD163 expression) (human macrophages [1]): reduction of M2 markers
- secretion of the cytokines IL-6, IL-8 and TNFα [2]: increased secretion

B1: CD40L: Recombinant CD40 ligand (Peprotech), CD40 agonist (protein, UniProt P29965 113-261, looked up)
CD40 ligand, soluble form: MQKGDQNPQIAAHVISEASSKTTSVLQWAEKGYYTMSNNLVTLENGKQLTVKRQGLYYIYAQVTFCSNREASSQAPFIASLCLKSPGRFERILLRAANTHSSAKPCGQQSIHLGGVFELQPGASVFVNVTDPSQVSHGTGFTSFGLLKL
- tumor killing ability of macrophages and CAR macrophages [3]: significantly improved the tumor killing ability
- M1 phenotype (expression of M1 and M2 markers) [4]: induced an M1 phenotype

B2: IFN-γ: interferon cytokine that induces an M1 phenotype (protein, UniProt P01579 24-161, looked up)
Interferon gamma: QDPYVKEAENLKKYFNAGHSDVADNGTLFLGILKNWKEESDRKIMQSQIVSFYFKLFKNFKDDQSIQKSVETIKEDMNVKFFNSNKKKRDDFEKLTNYSVTDLNVQRKAIHELIQVMAELSPAAKTGKRKRSQMLFRG
- M1 phenotype (based on CD86 expression) (human macrophages [1]): induction of an M1 phenotype
- M2 markers (based on CD163 expression) (human macrophages [1]): reduction of M2 markers
- secretion of the cytokines IL-6, IL-8 and TNFα [2]: increased secretion
- mCherry expression (human macrophages [5]): reduced mCherry mRNA expression
